Experiment [1] addresses CMV-pp65495-503-TCR, on Jurkat T cells.
The target of experiment [2] is pp65495-503 tetramer-positive primary human T cells (their TCRs).
In experiment [3] the target is CMV-pp65495-503-TCR, on Jurkat T cells. This is another data set of the same source.
For experiment [4], the target named is NY-ESO-1 TCR, clone 1G4 mutated version (a95:LY) with high affinity, on Jurkat T cells. Put plainly: cell-based or functional assay.
In experiment [5] the target is CMV-pp65495-503-TCR, on Jurkat T cells. Put plainly: cell-based or functional assay.
Experiment [6] concerns the target pp65495-503 tetramer-positive primary human T cells (their TCRs). This is another data set of the same source.
Experiment [7] concerns the target CMV-pp65495-503-TCR, on Jurkat T cells. This is another data set of the same source.
Experiment [8] addresses Flu-m158-66-TCR, on Jurkat T cells.
The target in experiment [9] is NY-ESO-1 TCR, clone 1G4 mutated version (a95:LY) with high affinity, on Jurkat T cells.
Experiment [10] has as its target peptide on HLA-A*02:01 (human).
Experiment [11] deals with NY-ESO-1 peptide on HLA-A*02:01 (human).
For experiment [12], the target named is peptide on HLA-A*02:01 (human). This is another data set of the same source.
The target in experiment [13] is NY-ESO-1 TCR, clone 1G4 mutated version (a95:LY) with high affinity, on Jurkat T cells. This is another data set of the same source.
For experiment [14] the target is unchanged. This is another data set of the same source.
Experiment [15] addresses anti-SAR2-RBD BCR on B cells (RBD antibody of PDB 7BWJ with human IgG1 Fc and PDGFR TM). Put plainly: flow cytometry; GFP viruses displaying RBD on RBD-BCR+ B cells. Background: In flow cytometry, cells or beads pass a laser one at a time.
The target in experiment [16] is Anti-Her2 BCR on B cells (from Trastuzumab vector, with PDGFR TM). Put plainly: flow cytometry; GFP viruses displaying HER2 on HER2-BCR+ B cells.

Where “and” joins values, the source holds several entries; their conditions need not be identical. Identical values can stand only once. Like-named read-outs stand apart in the source and are kept apart here.

The values that follow come from patent US20250027073A1.

Substance “CMV pp65495-503 (…) presented by HLA-A0201, single-chain trimer of pMHC displayed on the lentiviral surface (from UniProt P61769 21-119) (peptide-MHC)” showed a percent of antigen+ cells matched with the corresponding TCR sequence in experiment [1] of 99.8%. The substance further had a percent of tetramer+ T cells labeled in experiment [2] of 99%. The same substance had a percent of tetramer positive cells that were GFP+ in experiment [3] greater than 90%. Also, the GFP transgene expression after infection (cargo delivery) in [4] turned out to be 0.22%. In experiment [5], this substance showed a GFP transgene expression after infection (cargo delivery) of 82%; a depletion of on-target T cells after HSV-TK gene delivery and GCV treatment, against GFP gene delivery of 8 fold. In [6], this substance registered a percent of tetramer-positive T cells labeled of 83% and a percent of tetramer-positive T cells recovered of 98%. Moreover, the percent of T cells GFP+ in [7] was greater than 87%.
Consider “HPV16 E782-91 peptide presented by HLA-A2, single-chain trimer of pMHC displayed on the lentiviral s (from UniProt P03129 82-91; P61769 21-119) (peptide-MHC)”, for which the percent of T cells labeled (GFP+) in [8], in experiment [9] and in experiment [7] was 1% throughout.
Regarding “NY-ESO-1 TCR, clone 1G4, wild-type (1G4 wt)”, the dissociation constant Kd (commonly the constant that tells how readily two partners part at equilibrium) in experiment [10] was 10.8 µM and 84.9 µM; in [11], 10.8 µM and 84.9 µM; in experiment [12] it was 10.8 µM and 84.9 µM.
“NY-ESO-1157-165 (…) presented by HLA-A0201, single-chain trimer of pMHC displayed on the lentiviral surface (from UniProt P61769 21-119) (peptide-MHC)” registered a percent of antigen+ cells matched with the corresponding TCR sequence in [13] of 97.4%. The percent of TCR-T cells stained in experiment [14] worked out at 95.7%. In experiment [9], this substance came in with a percent of T cells GFP+ greater than 87% and a percent of T cells labeled (GFP+) of 88.2%.
The substance “Receptor Binding Domain (RBD) from SARS-CoV-2 spike protein fused with ICAM1 TM domain, displayed on (from UniProt P0DTC2 319-541)” showed a percent of B cells labeled (GFP+) in [15] of 88%.
In turn, “truncated Her2 (a1-a700) with its native TM domain, displayed on the lentiviral surface (from UniProt P04626 23-700) (receptor)” yielded a percent of B cells detected (GFP+) in experiment [16] of 76%.
